Groups on a side chain read outwards from the residue. No end group written: not given here. *: point of attachment. DSPE = distearoyl phosphatidyl ethanolamine, CCCCCCCCCCCCCCCCCC(=O)OC[C@H](COP(=O)(O)OCCN*)OC(=O)CCCCCCCCCCCCCCCCC; maleimide = Maleimide, used for thiol-reactive attachment of PEG to a Cys (thioether bond)
These binders were tested against human GLP-1 receptor (human, UniProt P43220 24-463) (assay: cell-based or functional assay).

Binder	in vitro potency (EC50) in the CRE-BLAM reporter assay on HEK-293 cells expressing the human GLP-1 receptor, relative to V8GLP-1 equal to 100%
HVEGTFTSDC([maleimide-PEG 40 kDa branched])SSYLEEQAAKEFIAWLVKGRG [V8E22C16-40 kDa PEG]	0.7%
HVEGTFTSDVSSYLEGQAAKEFIAWLVKGRGC([maleimide-PEG 3.4 kDa-DSPE]) [V8C38-3.4 kDa DPSE-PEG]	18%

Second part, the binder after the results:

in vitro potency (EC50) in the CRE-BLAM reporter assay on HEK-293 cells expressing the human GLP-1 receptor, relative to V8GLP-1 equal to 100%	Binder
3%	HVEGTFTSDVSSYLEGQAAKEFIAWLVKGRGC([maleimide-PEG 40 kDa branched]) [V8C38-40 kDa PEG]
4%	HVEGTFTSDC([maleimide-PEG 3.4 kDa-DSPE])SSYLEGQAAKEFIAWLVKGRG [V8C16-3.4 kDa DPSE-PEG]

Reference: US20080113905A1 (Eli Lilly, published 2008)
